In paper PMC6735613:

Target: recombinant human MMP-9 catalytic domain (residues 112-445) (human) (UniProt P14780)
Sequence of UniProt P14780 (P14780 112-445): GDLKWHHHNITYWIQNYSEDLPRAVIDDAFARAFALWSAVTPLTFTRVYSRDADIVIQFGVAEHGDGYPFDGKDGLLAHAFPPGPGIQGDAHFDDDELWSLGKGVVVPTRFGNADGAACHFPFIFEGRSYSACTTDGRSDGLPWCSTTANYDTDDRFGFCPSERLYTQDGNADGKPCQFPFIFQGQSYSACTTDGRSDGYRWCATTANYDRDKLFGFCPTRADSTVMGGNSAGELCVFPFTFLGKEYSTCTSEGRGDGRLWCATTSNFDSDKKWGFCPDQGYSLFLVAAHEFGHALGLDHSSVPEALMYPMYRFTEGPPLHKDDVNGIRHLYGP

B1: VCAN p.1335-1347 FRET substrate (5-FAM-…-QXL) (peptide)
peptide: GRMSDLSMIGHPI
modifications: 5-FAM on the N-terminus, QXL quencher on the C-terminus (5-FAM-GRMSDLSMIGHPI-QXL)
- Kcat/Km of hydrolysis of the FRET-tagged peptide by the MMP-9 catalytic domain: 8650 M⁻¹ s⁻¹
